# Experimental data as given in patent US20230295259A1 (Protagonist Therapeutics, Inc., priority 2020, published 2023).
# Starred links: 1 amine or outer side, 2 acyl side, 3 side chain; linkers in the order of their positions; H or OH if unused. Positions of bridges follow the written chain, without caps; N, C: chain ends. Non-standard residues stand in square brackets, D forms with d. Groups on a side chain read outwards from the residue. *: point of attachment. Glu(OMe) = COC(=O)CC[C@H](N[*:1])C(=O)[*:2]; C18 diacid = O=C(O)CCCCCCCCCCCCCCCCC(=O)*; Dip = N[C@H](C(=O)O)C(c1ccccc1)c1ccccc1; Palmitoyl = CCCCCCCCCCCCCCCC(=O)*; β3hF = N[C@H](CC(=O)O)Cc1ccccc1; Cha = N[C@@H](CC1CCCCC1)C(=O)O; Tle = CC(C)(C)[C@H](N)C(=O)O; hLeu = CC(C)CC[C@H](N)C(=O)O; Isovaleryl = CC(C)CC(=O)*; Ac6c = NC1(C(=O)O)CCCCC1; Dap = NC[C@H](N)C(=O)O; AEEA = NCCOCCOCC(=O)O; Ahx = NCCCCCC(=O)O
# T1: human ferroportin (SLC40A1) fused in frame with GFP, stably expressed in HEK293 cells (human, UniProt Q9NP59 1-571)
# T1 sequence (looked up): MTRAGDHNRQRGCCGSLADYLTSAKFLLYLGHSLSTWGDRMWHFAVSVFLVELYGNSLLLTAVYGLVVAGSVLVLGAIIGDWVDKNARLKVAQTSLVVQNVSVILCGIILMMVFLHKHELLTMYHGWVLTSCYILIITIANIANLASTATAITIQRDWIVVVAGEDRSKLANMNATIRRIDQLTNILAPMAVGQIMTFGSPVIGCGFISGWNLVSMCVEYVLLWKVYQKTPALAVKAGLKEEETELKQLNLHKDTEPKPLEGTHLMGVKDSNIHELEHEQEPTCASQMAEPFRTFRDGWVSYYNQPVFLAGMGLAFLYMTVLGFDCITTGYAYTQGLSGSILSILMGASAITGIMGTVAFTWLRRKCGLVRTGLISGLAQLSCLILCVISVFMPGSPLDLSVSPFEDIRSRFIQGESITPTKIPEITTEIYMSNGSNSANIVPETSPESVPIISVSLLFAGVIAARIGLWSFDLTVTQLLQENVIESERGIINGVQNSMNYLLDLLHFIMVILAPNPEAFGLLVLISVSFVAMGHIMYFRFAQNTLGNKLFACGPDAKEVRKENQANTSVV
# Target: T1, human ferroportin (SLC40A1) fused in …
# Test: cell-based or functional assay
row,Binder,IC50: FPN internalisation [nM]
1,XXTHXPXIXXXC ([Isovaleric Acid]-[Glu(OMe)]-T-H-[Dpa]-P-[(D)Cys]-I-[Lys(PEG2_1PEG2_DMG_N_2ae_C18_Diacid)]-[bhPhe]-[(D)Lys]-C-NH2) [Seq. No. 495],14.9
2,XXTXXPCIXXXC ([Isovaleric Acid]-[Glu(OMe)]-T-[4Pal]-[Dpa]-P-C-I-[Lys(1PEG2_1PEG2_Dap_C18_Diacid)]-[bhPhe]-[(D)Lys]-C-NH2) [Seq. No. 499],14.3
3,XXTHXPCIXXXXC ([Isovaleric Acid]-[Glu(OMe)]-T-H-[Dpa]-P-C-I-[(D)Lys]-[bhPhe]-[Lys(Ahx_DMG_N_2ae_Palm)]-[(D)Lys]-C-NH2) [Seq. No. 528],32.4
4,Isovaleryl-[Glu(OMe)]TH[Dip]PCIK([AEEA-AEEA-Dap-C18 diacid])[β3hF][dR]C-NH2 (disulfide 6-11 (inferred)) [Seq. No. 535],21
5,XXTHXPCIXXXC ([Isovaleric Acid]-[Glu(OMe)]-T-H-[Dpa]-P-C-I-[Lys(1PEG2_1PEG2_Dap_C18_Diacid)]-[Achc]-[(D)Lys]-C-NH2) [Seq. No. 507],29.6
6,XXTHXPCIXXXC ([Isovaleric Acid]-[Glu(OMe)]-T-H-[Dpa]-P-C-I-[Lys(1PEG2_1PEG2_Dap_C18_Diacid)]-[Hph]-[(D)Lys]-C-NH2) [Seq. No. 508],24.2
7,XETHXPCIXXXXC ([Isovaleric Acid]-E-T-H-[Dpa]-P-C-I-[(D)Lys]-[bhPhe]-[Lys(Ahx_DMG_N_2ae_Palm)]-[(D)Lys]-C-NH2) [Seq. No. 527],31
8,XXTHXPCIXXXC ([Isovaleric Acid]-[(D)Arg]-T-H-[Dpa]-P-C-I-[Lys(1PEG2_1PEG2_Dap_C18_Diacid)]-[bhPhe]-[(D)Lys]-C-NH2) [Seq. No. 537],33.8
9,Isovaleryl-[Glu(OMe)]TH[Dip]PCIK([AEEA-AEEA-Dap-C18 diacid])[hLeu][dK]C-NH2 (disulfide 6-11 (inferred)) [Seq. No. 509],20.6
10,XXTHXPCIXXXC ([Isovaleric Acid]-[(D)Glu]-T-H-[Dpa]-P-C-I-[Lys(1PEG2_1PEG2_Ahx_C18_Diacid)]-[bhPhe]-[(D)Lys(PEG11_OMe)]-C-NH2) [Seq. No. 540],142
11,XXTHXPCIXXXC ([Isovaleric Acid]-[Glu(OMe)]-T-H-[Dpa]-P-C-I-[Lys(1PEG2_1PEG2_Dap_C18_Diacid)]-[Igl]-[(D)Lys]-C-NH2) [Seq. No. 522],19.2
12,XETHXPCIXXXC ([Isovaleric Acid]-E-T-H-[Dpa]-P-C-I-[Lys(1PEG2_1PEG2_IsoGlu_C18_Diacid)]-[bhPhe]-[(D)Lys(Carnitine)]-C-NH2) [Seq. No. 543],13.2
13,Isovaleryl-[Dap]TH[Dip]PCI[dK][β3hF]K([Ahx-Palmitoyl])[dR]C-NH2 (disulfide 6-12 (inferred)) [Seq. No. 502],55.7
14,XETHXPCIXXXXC ([Isovaleric Acid]-E-T-H-[Dpa]-P-C-I-[Lys(Ac)]-[bhPhe]-[Lys(Ahx_Palm)]-[(D)Arg]-C-NH2) [Seq. No. 476],1760
15,Isovaleryl-[Glu(OMe)]TH[Dip]PCI[dK][β3hF]K([Ahx-Palmitoyl])[dR]C[dR]-NH2 (disulfide 6-12 (inferred)) [Seq. No. 500],52.5
16,Isovaleryl-[Glu(OMe)]TH[Dip]PC[Tle]K([AEEA-AEEA-Dap-C18 diacid])[β3hF][dK]C-NH2 (disulfide 6-11 (inferred)) [Seq. No. 514],13.6
17,XXTHXPCIXXXC ([Isovaleric Acid]-[IsoGlu]-T-H-[Dpa]-P-C-I-[Lys(1PEG2_1PEG2_Ahx_C18_Diacid)]-[bhPhe]-[(D)Lys(PEG11_OMe)]-C-NH2) [Seq. No. 533],203
18,XETHXPCIXXXC ([Isovaleric Acid]-E-T-H-[Dpa]-P-C-I-[N-MeLys(Ahx_Palm)]-[bhPhe]-[(D)Lys(Carnitine)]-C-NH2) [Seq. No. 542],9.02
19,XETHXPCIXXXC ([Isovaleric Acid]-E-T-H-[Dpa]-P-C-I-[Lys(PEG12_Dap_C18_Diacid)]-[bhPhe]-[(D)Lys]-C-NH2) [Seq. No. 517],9.58
20,XXTHXPCIXXXC ([Isovaleric Acid]-[Glu(OMe)]-T-H-[Dpa]-P-C-I-[Lys(PEG2_1PEG2_DMG_N_2ae_C18_Diacid)]-[bhPhe]-[(D)Lys]-C-NH2) [Seq. No. 545],14.6
21,Isovaleryl-[Glu(OMe)]TH[Dip]PCI[dK][β3hF]K([Ahx-Palmitoyl])[dR]C-NH2 (disulfide 6-12 (inferred)) [Seq. No. 501],39.9
22,XETHXPCIXXXC ([Isovaleric Acid]-E-T-H-[Dpa]-P-C-I-[Lys(PEG2_1PEG2_DMG_N_2ae_C18_Diacid)]-[bhPhe]-[(D)Lys]-C-NH2) [Seq. No. 544],9.26
23,XXTHXPXIXXXXC ([Isovaleric Acid]-[Glu(OMe)]-T-H-[Dpa]-P-[(D)Cys]-I-[(D)Lys]-[bhPhe]-[Lys(PEG2_1PEG2_DMG_N_2ae_C18_Diacid)]-[(D)Lys]-C-NH2) [Seq. No. 494],107
24,Isovaleryl-[Glu(OMe)]TH[Dip]PC[hLeu]K([AEEA-AEEA-Dap-C18 diacid])[β3hF][dK]C-NH2 (disulfide 6-11 (inferred)) [Seq. No. 515],12.5
25,Isovaleryl-ETHFPCIK(Ac)F[dK]C-NH2 (disulfide 6-11 (inferred)) [Seq. No. 478],69.9

row,Binder,IC50: FPN internalisation [nM]
1,XETHXPCIXXXXC ([Isovaleric Acid]-E-T-H-[Dpa]-P-C-I-[(D)Lys]-[bhPhe]-[N-MeLys(Ahx_Palm)]-[(D)Lys(Carnitine)]-C-NH2) [Seq. No. 541],26
2,XXTHXPCIXXXC ([Isovaleric Acid]-[Glu(OMe)]-T-H-[Dpa]-P-C-I-[Lys(Ahx_DMG_N_2ae_Palm)]-[bhPhe]-[(D)Lys]-C-NH2) [Seq. No. 532],7.14
3,Isovaleryl-[Glu(OMe)]TH[Dip]PC[Cha]K([AEEA-AEEA-Dap-C18 diacid])[β3hF][dK]C-NH2 (disulfide 6-11 (inferred)) [Seq. No. 511],16.9
4,XXTHXPCIXXXC ([Isovaleric Acid]-[Glu(OMe)]-T-H-[Dpa]-P-C-I-[Lys(1PEG2_1PEG2_Dap_C18_Diacid)]-[bhPhe]-[(D)Lys(Ac)]-C-NH2) [Seq. No. 521],10.1
5,XETXXPCIXXXC ([Isovaleric Acid]-E-T-[3Quin]-[Dpa]-P-C-I-[Lys(1PEG2_1PEG2_Dap_C18_Diacid)]-[bhPhe]-[(D)Lys]-C-NH2) [Seq. No. 479],475
6,XXTHXPCIXXXC ([Isovaleric Acid]-[Glu(OMe)]-T-H-[Dpa]-P-C-I-[Lys(PEG12_DMG_N_2ae_Palm)]-[bhPhe]-[(D)Lys]-C-NH2) [Seq. No. 530],37.4
7,XXTWXPCIXXXC ([sovaleric Acid]-[Glu(OMe)]-T-W-[Dpa]-P-C-I-[Lys(1PEG2_1PEG2_Ahx_C18_Diacid)]-[bhPhe]-[(D)Lys]-C-NH2) [Seq. No. 498],124
8,XEXHXPCIXXXC ([Isovaleric Acid]-E-[Dab]-H-[Dpa]-P-C-I-[Lys(1PEG2_1PEG2_Ahx_C18_Diacid)]-[bhPhe]-[(D)Lys]-C-NH2) [Seq. No. 546],53.6
9,XXTHXPCIXXXC ([Isovaleric Acid]-[Glu(OMe)]-T-H-[Dpa]-P-C-I-[Lys(1PEG2_1PEG2_Dap_C18_Diacid)]-[bhPhe(4-Me)]-[(D)Lys]-C-NH2) [Seq. No. 505],16.7
10,Isovaleryl-[Glu(OMe)]TH[Dip]PC[dR]K([AEEA-AEEA-Dap-C18 diacid])[β3hF][dK]C-NH2 (disulfide 6-11 (inferred)) [Seq. No. 536],94.1
11,Isovaleryl-ETH[Dip]PCI[dK][β3hF]K([Ahx-Palmitoyl])[dR]C[dR]-NH2 (disulfide 6-12 (inferred)) [Seq. No. 474],54.6
12,XXTHXPCIXXXC ([Isovaleric Acid]-[Glu(OMe)]-T-H-[Dpa]-P-C-I-[Lys(1PEG2_1PEG2_Dap_C18_Diacid)]-[Phe(4-COOH)]-[(D)Lys]-C-NH2) [Seq. No. 503],180
13,XEXHXPCIXXXC (not fully specified; [Isovaleric Acid]-E-[Dap]-H-[Dpa]-P-C-I-[Lys(1PEG2_1PEG2_Ahx_C18_Diacid)]-[bhPhe]-[(D)Lys]-C-NH2) [Seq. No. 547],24.8
14,XXTHXPCIXXXC ([Isovaleric Acid]-[Glu(OMe)]-T-H-[Dpa]-P-C-I-[Lys(PEG12_PEG12_Dap_C18_Diacid)]-[bhPhe]-[(D)Lys]-C-NH2) [Seq. No. 519],24.7
15,XEXHXPCIXXXXC (not fully specified; [Isovaleric Acid]-E-[Dab]-H-[Dpa]-P-C-I-[(D)Lys]-[bhPhe]-[Lys(Ahx_Palm)]-[(D)Lys]-C-NH2) [Seq. No. 548],46.3
16,XEXHXPCIXXXXC (not fully specified; [Isovaleric Acid]-E-[Dap]-H-[Dpa]-P-C-I-[(D)Lys]-[bhPhe]-[Lys(Ahx_Palm)]-[(D)Lys]-C-NH2) [Seq. No. 549],50.8
17,Isovaleryl-[Glu(OMe)]TH[Dip]PC[Ac6c]K([AEEA-AEEA-Dap-C18 diacid])[β3hF][dK]C-NH2 (disulfide 6-11 (inferred)) [Seq. No. 512],37.4
18,Isovaleryl-ETH[Dip]PCI[dK][β3hF]K([Ahx-Palmitoyl])[dR]C-NH2 (disulfide 6-12 (inferred)) [Seq. No. 475],42.8
19,XXTHXPCIXXXC ([Isovaleric Acid]-[Glu(OMe)]-T-H-[Dpa]-P-C-I-[Lys(PEG12_Dap_C18_Diacid)]-[bhPhe]-[(D)Lys]-C-NH2) [Seq. No. 520],19.9
20,XXTXXPCIXXXC ([Isovaleric Acid]-[Glu(OMe)]-T-[4Pal]-[Dpa]-P-C-I-[Lys(1PEG2_1PEG2_Ahx_C18_Diacid)]-[bhPhe]-[(D)Lys]-C-NH2) [Seq. No. 496],10.6
21,XXTYXPCIXXXC ([Isovaleric Acid]-[Glu(OMe)]-T-Y-[Dpa]-P-C-I-[Lys(1PEG2_1PEG2_Ahx_C18_Diacid)]-[bhPhe]-[(D)Lys]-C-NH2) [Seq. No. 497],35.3
22,XETYXPCIXXXC ([Isovaleric Acid]-E-T-Y-[Dpa]-P-C-I-[Lys(1PEG2_1PEG2_Dap_C18_Diacid)]-[bhPhe]-[(D)Lys]-C-NH2) [Seq. No. 477],246
23,XETHXPCIXXXXC ([Isovaleric Acid]-E-T-H-[Dpa]-P-C-I-[(D)Lys]-[bhPhe]-[Lys(DMG_N_2ae_Palm)]-[(D)Lys]-C-NH2) [Seq. No. 525],7.98
24,XXTHXPCIXXXXC ([Isovaleric Acid]-[Glu(OMe)]-T-H-[Dpa]-P-C-I-[(D)Lys]-[bhPhe]-[Lys(DMG_N_2ae_Palm)]-[(D)Lys]-C-NH2) [Seq. No. 526],28.1
